Experimental data taken from publication doi:10.1101/2022.08.23.504973 (bioRxiv, 2022).

Target: KEAP1 (Kelch-like ECH-associated protein 1), recombinant (UniProt Q14145 1-624)
Test: SPR

Sequence of KEAP1 (Kelch-like ECH-associated protein 1), recombinant (Q14145 whole entry): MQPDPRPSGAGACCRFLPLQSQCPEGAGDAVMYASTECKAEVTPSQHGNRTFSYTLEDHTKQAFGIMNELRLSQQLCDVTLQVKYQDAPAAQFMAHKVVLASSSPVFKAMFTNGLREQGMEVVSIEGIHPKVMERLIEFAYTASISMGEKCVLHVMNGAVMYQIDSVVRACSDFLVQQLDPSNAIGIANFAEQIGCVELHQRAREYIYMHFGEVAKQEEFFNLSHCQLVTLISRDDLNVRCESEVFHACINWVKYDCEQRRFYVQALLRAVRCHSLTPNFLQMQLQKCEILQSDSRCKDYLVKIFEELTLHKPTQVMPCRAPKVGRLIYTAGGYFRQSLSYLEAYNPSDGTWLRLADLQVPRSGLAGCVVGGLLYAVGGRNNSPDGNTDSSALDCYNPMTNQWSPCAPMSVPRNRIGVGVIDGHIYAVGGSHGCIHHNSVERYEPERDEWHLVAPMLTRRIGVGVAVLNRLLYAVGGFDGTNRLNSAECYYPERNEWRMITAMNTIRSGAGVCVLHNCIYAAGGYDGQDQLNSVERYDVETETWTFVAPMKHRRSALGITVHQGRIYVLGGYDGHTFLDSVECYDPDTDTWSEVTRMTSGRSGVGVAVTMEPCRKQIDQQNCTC

B1: BDNF mature recombinant (brain-derived neurotrophic factor) (ligand, human, UniProt P23560 129-247, looked up)
chain: HSDPARRGELSVCDSISEWVTAADKKTAVDMSGGTVTVLEKVPVSKGQLKQYFYETKCNPMGYTKEGCRGIDKRHWNSQCRTTQSYVRALTMDSKKRIGWRFIRIDTSCVCTLTIKRGR
  Kd: 2.71 nM
  koff: 0.00225 s⁻¹
  kon: 828000 M⁻¹ s⁻¹
